Experimental data taken from patent US20150139997A1 (Genmab, published 2015).

Columns and labels:
DR4 (R&D Systems) = target: T1, DR4 (R&D Systems) (UniProt O00220 24-239, limits assumed); assay: ELISA, coated antigen 50 ng/mL
T1 construct: Bought reagent coated at 50 ng/mL; also called TRAIL-R1

DcR1 (R&D Systems) = target: T2, DcR1 (R&D Systems) (UniProt O14798 26-221, limits assumed); assay: ELISA, coated antigen 50 ng/mL
T2 construct: Bought reagent coated at 50 ng/mL; also called TRAIL-R3
T2 sequence (looked up): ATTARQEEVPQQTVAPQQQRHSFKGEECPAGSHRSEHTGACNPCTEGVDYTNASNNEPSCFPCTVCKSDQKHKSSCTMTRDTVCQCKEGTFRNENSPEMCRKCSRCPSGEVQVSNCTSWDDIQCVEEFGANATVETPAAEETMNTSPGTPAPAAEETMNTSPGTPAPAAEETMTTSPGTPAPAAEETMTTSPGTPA

DcR2 (R&D Systems) = target: T3, DcR2 (R&D Systems) (UniProt Q9UBN6 56-211, limits assumed); assay: ELISA, coated antigen 50 ng/mL
T3 construct: Bought reagent coated at 50 ng/mL; also called TRAIL-R4
T3 sequence (looked up): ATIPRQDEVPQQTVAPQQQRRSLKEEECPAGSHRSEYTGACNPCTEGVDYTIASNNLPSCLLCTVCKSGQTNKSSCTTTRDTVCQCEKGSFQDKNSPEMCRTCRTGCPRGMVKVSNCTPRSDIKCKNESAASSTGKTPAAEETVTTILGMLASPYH

Fas (R&D Systems) = target: T4, Fas (R&D Systems) (UniProt P25445 26-173, limits assumed); assay: ELISA, coated antigen 50 ng/mL
T4 construct: Bought reagent coated at 50 ng/mL
T4 sequence (looked up): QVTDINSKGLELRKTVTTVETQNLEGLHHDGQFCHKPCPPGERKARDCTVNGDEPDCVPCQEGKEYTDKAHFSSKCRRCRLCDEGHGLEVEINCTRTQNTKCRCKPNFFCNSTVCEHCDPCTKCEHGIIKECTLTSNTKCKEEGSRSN

FasL (Tebu-bio) = target: T5, FasL (Tebu-bio) (UniProt P48023 134-281, limits assumed); assay: ELISA, coated antigen 100 ng/mL
T5 construct: Bought reagent coated at 100 ng/mL
T5 sequence (looked up): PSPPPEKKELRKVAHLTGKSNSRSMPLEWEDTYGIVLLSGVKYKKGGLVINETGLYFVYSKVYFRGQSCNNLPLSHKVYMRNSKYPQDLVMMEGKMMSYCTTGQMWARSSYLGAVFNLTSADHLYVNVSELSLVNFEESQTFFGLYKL

[1] = target: T6, recombinant TRAIL (R&D Systems) (UniProt P50591 114-281); assay: ELISA, coated antigen 100 ng/mL
T6 construct: Bought reagent, used coated in the ELISA and soluble at 100 ng/mL on H4 cells; also called Apo2L; TRAIL ligand

Measured: binding result

B1: mDR5-01 (antibody, V domains shown)
VH: EVQLQQSGAEFVKPGASVKLSCTASGFNIKDTFIHWVKQRPEQGLDWIGRIDPANGNTKYDPKFQGKATETTDTSSNTAYLQLSSLTSEDTAVYYCVRGLYTYYFDYWGQGTSVTVSS
VL: DIVLTQSPATLSVTPGDSVSLSCRASQSISNNLHWYQQKSHESPRLLIKFASQSISGIPSRFSGSGSGADFTLIINSVETEDFGMYFCQQGNSWPYTFGGGTKLEIK
no binding (tested: 1 µg/mL): all assays above

B2: mDR5-05 (antibody, V domains shown)
VH: EVQLQQSGAELVKPGASVKLFCTASGFNIKDTHIHWVKQRPEQGLEWIGRIDPANGNTEYDPKFQGKATIRVDTSSDTAYLQLSSLTSEDTAVHYCARWGTNVYFAYWGQGTSVTVSS
VL: DIQLTQSPAIMSASPGEKVTISCSASSSVSYMYWYQQKPGSSPKPWIYRTSNLASGVPGRFSGSGSGTSYSLTISSMEAEDAATYYCQQYHSYPPTFGGGTKLEIK
notes: mouse IgG1 is implied
no binding (tested: 1 µg/mL): all assays above
